The supplement of paper PMC9170038

Tested on: MS2 coat protein
Test: apparent KD of MS2 coat protein; higher = weaker reporter binding
Conditions: Eterna round: R107
Summary of the method: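 Designed RNA switches, transcribed on-chip from Illumina sequencing clusters, were titrated with SNAP-549-labelled MS2 coat protein from 0.7 or 1.5 nM to 3 µM in twofold steps. The solution was 100 mM Tris-HCl pH 7.5, 80 mM KCl, 4 mM MgCl2, with constant ligand or without it. Apparent KD is the median over each design's normalised cluster binding-curve fits.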

[1] = input ligand: theophylline 20 uM
[2] = input ligand: theophylline 2 mM
[3] = input ligand: tryptophan 2.4 mM

Row | Sequence | apparent KD of MS2 coat protein (input ligand: arginine 13.2 mM) [nM] | apparent KD of MS2 coat protein [1] [nM] | apparent KD of MS2 coat protein [2] [nM] | apparent KD of MS2 coat protein [3] [nM] | apparent KD of MS2 coat protein (input ligand: none) [nM]
1 | AAUAAACAUGAGGAUCACCCAUGUAGGGUGCGAGGACCGGUACGGCCGCCACUCGGGUGAAAACAUGAGGAUCACCCAUGUAAAA [Mat - Exclusion - Trytophan A - D23] | 61.1 | 185 | 220 | – | –
2 | UAUAUAAUAACAGAUACCAGCGUGUUAUAAAACAUGAGGAUCACCCAUGUAGUGAUCAAGCGCCCUUGGCAGCUGGUAUUAUAUA [7.A] | 123 | 140 | – | 47.6 | –
3 | AAACAUGAGGAUCACCCAUGUGGAACCGAAGGAGCGGCGCACAUGCCAGGUAGGUCGCGGGACAUGAGGACAUGAGGAUCACCCA [Same State Arginine A 3] | 45.1 | 207 | 184 | 134 | 135
4 | AAAUAAAUCACAUGAGGAUCACCCAUGGAUACCAGGCCUGGAAACAGCCCUUGGCAGCCACAUGAGGAUCACCCAUGUGCUAAUA [MAT - Exclusion Theophlline A - Mod of Eli - D1] | 89.8 | 194 | – | 152 | –
5 | UUAGUAACGACGGCCGCCACUGAAUUUGAACAUGAGGAUCACCCAUGUAGAGAUCCUAGAAUAAACAGGACCGGGUCUGAUAAUG [Exclusion Tryptophane B GF3] | 80.8 | 139 | 120 | – | –
6 | UGGUGUAGGGUAAAUAGGAUUAGUACAGAAGGAGCGCGAAUAAACGCAGGUAGGUCGCUGGAAUACAUGAGGAUCACCCAUGUUC [Same State Arginine A GF 25] | 22.6 | 24.7 | 26.7 | 26 | 22
7 | CAAAAUAUCGGAAGGAGCGCGGGUAGGCGGGUUGGAUCACAUGAGGAUCACCCAUGUAAAUCGCAGGUAGGUCGCCGAUAACGCG [XArg-B27] | 52.9 | 60.4 | 37.9 | 30.1 | 19.9
8 | UUCCACCUAAAGCGUUGCCCUCGUGAUGAUACCAGUUUCAGCGGUAACCCUUGGCAGCAUCGGACAUGAGGAUCACCCAUGUGGA [theeternabot_exclusion_MS2_Theo_A_47] | 64.9 | 136 | – | 107 | –
9 | GGUUUGCGGCCUGAUACCAGUGAUGGAUGAACCCUAGUCAACAUGAGGAUCACCCAUGUUCACCCUUGGCAGCAGUGACGCUCGA [theeternabot_exclusion_MS2_Theo_B_34] | 43.2 | 78.7 | 354 | 74.1 | 69.7
10 | ACUAGGCUCGGAAACGAGCCUAGGACAGAAGGAGCGUGGAUUAACACAGGUAGGUCGCUGACAUGAGGAUCACCCAUGUAUUUAU [SSAA #5] | 19.9 | 31.2 | 25.6 | 21.9 | 27.3
11 | AAACAUGAGGAUCACCCAUGUAUGUUAUUACGAGGACCGGUACGGCCGCCACUCGAUAGAGUAGAAGUAAAUUGUAAUUCAUGUU [JR_ExcTryptoA_Sub017] | 19.3 | 18.8 | 16.9 | – | –
12 | AAUGUAUGGCACAUGAGGAUCACCCAUGUGCGAGGACCGGUACGGCCGCCACUCGGUCCUGGGAUCUUACAACUAUACAUUAAUG [XTryp A #20] | 10.3 | 17.2 | 16.4 | – | –
13 | GCCGCGGCCGCGAUACACAUGGGUGUGUAACGAGGACCGGUACGGCCGCCACUCGAGAUGGUGCACAUGAGGAUCACCCAUGUGC [Exclusion Tryp A GF15] | 10.3 | 14.1 | 19.3 | 12.1 | 14.9
14 | UGACAUUGCUCAGAUACCAGACAGGAGGAUCACUCCUGUGCCAACAAGUACAAAAUAAAUGUCCCUUGGCAGCUGAGCAAUGUCU [TheoBX 25 #MS2Left #AlternativeMS2 #Theo22] | 32 | 223 | 459 | 49 | 71.1
15 | UCGUGGUCCGCAAGGACCGGGAGUUGCGAUACCAGCACGGUAACGUGCCCUUGGCAGCGCACAUGAGGAUCACCCAUGUGGUGUU [#1 Exclusion - Theophylline A Attempt #14 (HarryS)] | 40.9 | 305 | – | 174 | –
16 | ACAUGAGGAUCACCCAUGUGAAGGCACGAUACCAGCUGAUCCCGUGGCCCUUGGCAGCGUCCGGUUUGGUCCGGCGGAUGAGACG [azamullin] | 19.6 | 36.4 | – | 23.5 | –
17 | CAUGUUGUUGAAGAUACCAGAUUCUGAACGUUCACAUGAGGAUCACCCAUGUAAGUCCGAGUCCCUUGGCAGCUUAUACAGGUGG [Reatlala] | 43.9 | 50.8 | – | 47.7 | –
18 | GGUCUCGAGGGCGAUACCAGCUUGAUCGUACUGGCCUGGUACAUGAGGAUCACCCAUGUAAGCCCUUGGCAGCGCGCUCGAGACC [#1 Exclusion - Theophylline B Attempt #6 (HarryS)] | 7.85 | 18.5 | 29.3 | 17 | 11
19 | UGACAUUGCUCAGAUACCAGACAUGAGGAUCACCCAUGUACCGAGGUACCCGAAAGGAAUGUCCCUUGGCAGCUGAGCAAUGUCU [TheoBX 4 #MS2Left #Theo2 #StaticStem] | 12.9 | 15.5 | – | 11 | –

Row | Sequence | apparent KD of MS2 coat protein (input ligand: arginine 13.2 mM) [nM] | apparent KD of MS2 coat protein [1] [nM] | apparent KD of MS2 coat protein [2] [nM] | apparent KD of MS2 coat protein [3] [nM] | apparent KD of MS2 coat protein (input ligand: none) [nM]
20 | UGUAUGUGAUUUGAUACCAGACCAGCGGGUGUUGCAUGAGGAUCACCCAUGUAGGUUUGGGUCCCUUGGCAGCAAAUCGCAUACU [SS Theo B #24 Ms18] | 289 | 438 | 127 | 523 | 482
21 | GGAUAGGACAGAAGGAGCGGCAUGGCAGAAACUGCAAUCCUCCUACACGAGGAUCACCCGUGUCAGGUAGGUCGCUGUCCUAUCG [ArgXB 13 #Zipper #MS2Left #StaticStem #Blueprint] | 18.5 | 20.4 | 19 | 15 | 15.1
22 | UGUACAUAAUUAGGUUACCUAUGUACAGAAGGAGCGUCGAUGACGACAGGUAGGUCGCUGUUAACAUGAGGAUCACCCAUGUACA [Arg A Ex t4] | 37.7 | 46.2 | 57.3 | 42.4 | 44.4
23 | UGGUGUAGGGUAAAUAGGAUUAGUACAGAAGGAGCGCGAAUAAACGCAGGUAGGUCGCUGGAAUAAACAUGAGGAUCACCCAUGU [Same State Arginine A GF 27] | 17.4 | 27.4 | 21.5 | 20.7 | 19.2
24 | GUCCGCAGCCGAAGGAGCGCUAGAAGGUGACAUGAGGAUCACCCAUGUGUGUGAUGUGGCUAGCAGGUAGGUCGCGGAGCGGAUU [Exclusion - Arginine B (Freestyle 18)] | 85.2 | 110 | 76.7 | 61.9 | 59.2
25 | GCACCAGGUACGGAUACCAGACAUUGCCGUUAGGGUGAACAUGAGGAUCACCCAUGUUUUGUCCCUUGGCAGCCGUACCUGGUGC [ETB NP+V+V2 #7 Same Structure] | 9.58 | 14.7 | 86.5 | 9.85 | 9.57
26 | UCGUGUAUUUCGGAUACCAGUGAAAUCGAUACAUGAGGAUCACCCAUGUGAGAGGAUGUACACCCUUGGCAGCUGUAUAUAUCUG [fgfmullin] | 18.7 | 38.7 | 24.8 | 21.9 | 29.1
27 | UUUCAGUGGACGGCCGCCACUGAAGUCGAUACAAUCAUGUAGAACAUGAGGAUCACCCAUGUAGUCAGGACCGGGUCCAAUGACU [Tryp B SS t3] | 15.9 | 21.3 | 22.8 | 20.5 | 22.9
28 | AACCGAGGCUAUCCUCUAAGAAAAUGUGAUACCAGAAUAAUUUUAUUCCCUUGGCAGCAUGACAUGAGGAUCACCCAUGUGUCUU [SSTheo A #6] | 73.6 | 131 | – | 138 | –
29 | UCGGGAACAUGAGGAUCACCCAUGUCAGAAGGAGCGCUGAGAGAAGCAGGUAGGUCGCUGACGCAGGAGCUCUCUUCCUGUACGC [#22 Exclusion - Arginine A] | 96.2 | 46.4 | 22.6 | 15.9 | 33.8
30 | UGUAUGUGAUCUGAUACCAGCGUUGAUAACCUGAGGAUCACCCUGGUAAAGGCGAAAGCCCGCCCUUGGCAGCAGAUCGCAUACU | 182 | 280 | 24.9 | 787 | 611
31 | AAAAUCCUAUCUGAGGAUCACCCAGGUGAAGGAGCGCCCGAAAGGGCAGGUAGGUCGCACCUGAGGAUCACCCUGGUAAACCUAA [ArgEX 21 #DoubleMS2 #OpenEnded] | 68.8 | 76.3 | 90.6 | 65.4 | 76.7
32 | AAUGUAUGGCACAUGAGGAUCACCCAUGUGCGAGGACCGGUACGGCCGCCACUCGGUCCUGGGAUCUUAUUACUAUACAUUAAUG [XTryp A #17] | 11.8 | 15.7 | 12.5 | – | –
33 | AGUCUAUGAAGAGAUACCAGUGAGAGACAUAGACAUGAGGAUCACCCAUGUGACAUGAAGCACCCUUGGCAGCUCAACGAGCUCA [Theo B SS t1] | 31.4 | 50 | – | 39 | –
34 | GAUAGUUGAAGGGAUACCAGCCUGGACAUGAGGAUCACCCAUGUAGCAUGUUUGAAACUGGGCCCUUGGCAGCCCAUAUUGUGUA [#11 Same State - Theophylline B] | 16.6 | 25.4 | – | 22.8 | –
35 | UGCCGAGACGUGGAUUACCCAUGUACAGAAGGAGCGCCCGAAAGGGCAGGUAGGUCGCUGAGGACAUGAGGAUCACCCAUGUCGA | 36.6 | 52 | 49.5 | 43.3 | 54.8
36 | AAUCUGAUUGCGGCCGCCACUAAUUUUCCAUGAGUAUUGCAAUUACAUGAGGAUCACCCAUGUCAUAGGACCGGGCAUGACAUCU [theeternabot_sameState_MS2_Trp_B_45] | 104 | 202 | 309 | – | –
37 | UAAAAUAAAAGGGUGAAGGUAUAAACAGAUACCAGCCAGAUAACUGGCCCUUGGCAGCUGAAUGACAUGAGGAUCACCCAUGUCU [TheoAS 21 #OpenEnded #Ms2Late] | 13.1 | 17.7 | – | 14.5 | –
